This passage reports stoichiometry N results from paper PMC3547835.

Test [1] concerns the target RHDV major capsid protein VP60 (in the native virion, HYD isolate strain) (rabbit hemorrhagic disease virus (HYD isolate strain)). The test is described as follows: cryo-EM structure; RHDV virions purified from infected rabbit livers, TNE buffer, vitrified; FEI Titan Krios 300 keV; ~36,000 particles; 6.5 Å overall (FSC 0.5), 5.5 Å in the inner shell; pseudo-atomic model by docking of the S and P crystal structures and MDFF.

Test [2] addresses RHDV VP60 P domain fragment (a.a. 228-579), JX/CHA/97 isolate strain (rabbit hemorrhagic disease virus (JX/CHA/97 isolate strain)). The test is described as follows: crystal structure; P domain (a.a. 228-579) crystals, space group P212121, hanging drop at 289 K, 0.1 M sodium acetate, 1.1 M succinic acid pH 5.5, 1.0% PEG2000MME; 2.0 Å; dimer in the asymmetric unit.

For orientation: stoichiometry N means the number of molecules, sites or subunits per partner or assembly. Take “RHDV major capsid protein VP60 (in the native virion, HYD isolate strain) (natural protein)”: in test [1], the stoichiometry N was 180.
Substance “RHDV VP60 P domain fragment (a.a. 228-579), JX/CHA/97 isolate strain (domain or fragment)” registered a stoichiometry N in test [2] of 2.
